System: BMS human breast cancer cells
Assay: Experimental metastasis in vivo (lung colonization)
Design: species or system mouse
Experimental: FIGS. 5A, 5B, 5C. ScFvs Bc-12 and Bc-15 prevent hematogenous breast cancer metastasis. (A) Left: Lungs of female SCID mice 32 days after i.v. injection with 1×10^5 BMS human breast cancer cells. The mice were treated with 50 μg Bc-12 or Bc-15 in 100 μl PBS (i.v.) on days 1, 2, 3 and 4. Controls received PBS only. Right: Numbers of lung surface metastases for each animal, horizontal lines indicate the median number of metastases per group. […] (B) Left: Histological sections of the above mouse lungs, stained with hematoxylin/eosin. Metastases were counted in six sets of three consecutive sections separated by 140 μm for each lung. Right: Number of metastases counted in sections of individual lungs, horizontal lines indicate median number of metastases per animal group. […] (C) Effect of Bc-15 treatment on established breast cancer metastasis in the lungs. Female SCID mice were injected i.v. with 5×10^5 DsRed2-tagged MDA-MB 435 breast cancer cells expressing constitutively activated integrin αvβ3D723R. Mice were treated on day 7, 9, 11 and 14, 16, 18 by i.v. injections of scFv Bc-15 or its RGE mutant, Mut-15 (40 μg/dose). Metastatic foci were enumerated by fluorescence microscopy on day 19. Left: Images of typical tumor foci within the lung tissue in Mut-15 (top) or Bc-15 treated mice (bottom) (bar: 50 μm). Right: Number of metastatic foci within the lung tissue of each animal, horizontal line: median number of metastases per group.
Experimental metastasis in vivo. 1×10^5 BMS human metastatic breast cancer cells were injected into the lateral tail veins of 9 week old female C.B17/lcrTac-Prkdc scid mice (Taconic Farms) (n=8 to 10) together with a 50 μg bolus dose of scFv. I.v. Injections of 50 μg scFv bolus doses were repeated on days 2, 3 and 4 of the experiment. Control animals received vehicle only (PBS). For in vivo use, endotoxin was removed from scFv preparations on Detoxy-Gel resin (Pierce). Remaining traces ranged from 0.001 to 0.07 EU endotoxin/mg scFv (LAL test, Bio Whittaker). On day 32, mice were euthanized, dissected, the lungs excised, fixed in Bouin's solution, and metastatic foci counted at the lung surface under a dissecting microscope. The same lungs were embedded in paraffin, and 10 μm sections were cut and stained with hematoxylin/eosin. Per lung, 7 sets of three consecutive sections were collected, separated by 140 μm. The sections were randomized and coded, and the total number of metastatic foci counted.
To test directly whether targeting activated integrin αvβ3 with the ligand mimetic antibodies Bc-12 and-15 affects target organ colonization by circulating metastatic breast cancer cells, 1×10^5 BMS human breast cancer cells were injected intravenously into female C.B-17 SCID mice, together with 50 μg sterile, endotoxin free preparations of Bc-12 or Bc-15 (n=8-10 mice per group). At an average blood volume of 2 ml per mouse, this provides an initial scFv concentration of 1 μM. The clearance time for scFv antibody fragments in the circulation is less than 1 h. Kortt et al., Biomol. Eng, 18: 95-108, 2001. Tumor cells may remain in the circulation for several days. Therefore, scFv antibody injections (50 μg bolus doses, i.v.) were repeated on the second, third and fourth day. […] After 32 days, the mice were euthanized, dissected and analyzed by gross examination. […] The lungs were excised, fixed, and metastatic foci counted at the lung surface. Each of the control treated mice had tumor foci on their lungs (range: 8 to 68 foci per lung). In stark contrast, only two animals in the Bc-12 treated group, and 1 animal in the Bc-15 treated group had one visible nodule at their lung surface (FIG. 5A).
Per lung, six sets of three consecutive sections, separated by 140 μm, were collected. The sections were randomized and coded, and the total number of metastatic foci counted. All control animals had metastases in their lung tissues (range: 7 to 48 counts per lung), and those were of considerable size (FIG. 5B top image). […]

B1: Bc-12: patient derived human scFv antibody against activated αvβ3 with RGD motif in CDR-H3; cDNA ATCC PTA-6303 (protein)
scFv: MAQVQLVQSGAEVKKPGASVKVSCKASGYTFSNYGITWVRQAPGQGLEWMGWINNGNTHYAQKFQGRVTMTTDTSTSTAYMELRSLRSDDTAVYYCARDPRGDDEPYWGQGTLVTVSSGGGGSGGGGSGGGGSEIVLTQSPLSLPVTLGQPASISCRSSQNLVYSDGNTYLSWFQQRPGQSPRRLIYKVSNRDSGVPDRFSGSGSGTDFTLKISRVEAEDIGVYYCMQGTHWPPRTFGQGTKVEIKRGLGGLVDYKDDDDK
health status during the experiment (50 μg i.v. days 1-4, 32 days): appeared healthy
number of lung surface metastases versus PBS control (50 μg i.v. days 1-4, day 32, P<0.001 Kruskal Wallis): significantly fewer metastases
number of metastases in lung sections versus PBS control (P<0.005 Kruskal Wallis): significantly fewer detectable metastases
animals with one visible nodule at lung surface (SCID mice, 50 μg i.v. days 1-4, day 32, n=8-10 per group, controls 8 to 68 foci per lung): two
gross examination at dissection (day 32): No obvious abnormalities
mice with microscopically detectable metastases in lung tissue (histological sections, day 32, all controls positive): 3 of 10

From US7271245B2, “Methods and compositions for inhibition of metastasis” (The Scripps Research Institute, priority 2004, dated 2007)
